Results: paper PMC2637360 (Structure (London, England : 1993), 2008)

Molecular target: the molecule itself
Test: crystal structure

B1: N141A HincII (enzyme)
chain: MSFIKPIYQDINSILIGQKVKRPKSGTLSGHAAGEPFEKLVYKFLKENLSDLTFKQYEYLNDLFMKNPAIIGHEARYKLFNSPTLLFLLSRGKAATENWSIENLFEEKQNDTADILLVKDQFYELLDVKRRNISKSAQAPAIISAYKLAQTCAKMIDNKEFDLFDINYLEVDSELNGEDLVCVSTSFAELFKSEPSELYINWAAAMQIQFHVRDLDQGFNGTREEWAKSYLKHFVTQAEQRAISMIDKFVKPFKKYIL
stoichiometry N: 2
